Key:
VEGFR3 IgD3-4 = target: T1, VEGFR3 IgD3-4 (UniProt P35916 219-415, limits assumed); experiment: native PAGE of the purified myc-tagged fragment, blot probed with R2C9-11
T1 construct: domain: IgD3-4; also called VEGFR3-ED Ig D3-4-myc; not shown: myc tag (pCMV6-XL6-myc vector)
T1 sequence (looked up): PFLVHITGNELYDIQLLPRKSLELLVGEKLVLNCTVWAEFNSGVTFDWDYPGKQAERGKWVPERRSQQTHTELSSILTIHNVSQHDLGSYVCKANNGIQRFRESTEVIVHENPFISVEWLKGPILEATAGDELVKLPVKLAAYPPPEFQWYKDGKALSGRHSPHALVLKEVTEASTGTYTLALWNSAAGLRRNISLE
Protocol: FIG. 11 is a set of graphs showing determination of the binding epitopes of R2C7-1 and R2C9-11 antibodies on VEGFR3 antigen. Panel A, Cell-based competitive. ELISA. HEK293T cells expressing VEGFR3 (293T/VEGFR3) were coated in 96-well plates. The optimal concentrations of R2C7-1 and R2C9-11 mAbs were determined as described previously (data now shown). The optimal concentrations of R2C7-1 and R2C9-11 mAbs were absorbed with the designed doses of the individual immunoglobin-like domains of VEGFR3 (R3-IgDs) antigens, as indicated. The bound antibodies were immune-probed with secondary antibody conjugated with HRP, visualized by addition of ABTS, and measured at OD₄₀₅ using a microplate reader (SpectraMax). Data are represented as means±S.D. of percentage of isotype control (CTL) in triplicate. The epitope locations of R2C7-1 and R2C9-11 on the VEGFR3 antigen are indicated by the black lines spanning IgD6 in the schematics. Panel B, Native gel electrophoresis. The whole extracellular domain (R3-IgD1-7), domain 3-4 (R3-IgD3-4) and domain 6-7 (R3-IgD6-7) were constructed, expressed in the E. coli, and purified using the anti-Myc affinity purification system. […] The binding of R2C7-1 and R2C9-11 to the VEGFR3 truncated antigens was evaluated with native gel electrophoresis to confirm the epitopes of R2C7-1 and R2C9-11 mAbs (middle and right, respectively). […]

R2-IgD4-5 = target: T2, R2-IgD4-5 (human, UniProt P35968); experiment: cell-based competitive ELISA: R2C9-11 absorbed with the soluble domains, then bound to fixed 293T/VEGFR2 cells, OD405
T2 construct: recombinant fragment; also called immunoglobin-like domains 4-5 of VEGFR2
T2 sequence (P35968 328-548 limits assumed): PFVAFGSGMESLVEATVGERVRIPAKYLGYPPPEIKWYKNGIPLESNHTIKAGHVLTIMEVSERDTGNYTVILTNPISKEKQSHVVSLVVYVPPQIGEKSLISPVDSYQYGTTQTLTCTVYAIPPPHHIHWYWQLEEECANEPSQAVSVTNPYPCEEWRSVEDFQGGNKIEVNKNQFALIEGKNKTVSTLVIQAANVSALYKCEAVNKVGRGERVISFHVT
Protocol: The optimal concentration of R2C7-1 and R2C9-11 mAbs (200 μg/mL and 50 μg/mL, respectively) were absorbed with the designated doses of the individual immunoglobin-like domains of VEGFR2 (R2-IgDs) antigens. After, the fixed 293T/VEGFR2 cells were incubated with the absorbed antibodies at 37° C. for 30 min. The bound antibodies were probed with goat-anti-mouse IgG conjugated with HRP, visualized by addition of ABTS, and measured at OD₄₀₅ using the SpectraMax microplate reader. Data are represented as means±S.D. of the percentage of isotype control (CTL) in triplicate. The potential epitope locations of R2C7-1 (upper) and R2C9-11 (lower) on the VEGFR2 antigen are indicated by black lines spanning IgD6 and IgD7 in the schematics.
To define the recognition epitopes of R2C7-1 and R2C9-11 antibodies, cell-based competitive enzyme-linked immunosorbent assay (ELISA) was performed. HEK293T/VEGFR2 transfectants (5 X×10⁴/well) were coated and fixed on 96-well plates. The optimal concentrations, the highest concentration of the log phase, of R2C7-1 and R2C9-11 antibodies for binding to the cells, were determined using a standard ELISA procedure (data not shown). […]
The epitopes of R2C7-1 and R2C9-11 anti-VEGFR2 antibodies were determined by cell-based competitive ELISA. […]

binding result (VEGFR3 IgD3-4): no binding
B1: R2C9-11 monoclonal antibody (antibody, V domains shown)
VH: QVQLQQPGAELVKPGASVKLSCKASGYTFTSYWMHWVKQRPGQGLEWIGEINPSNGRTNYNEKFKSKATLTVDKSSSTAYMQLSSLTSEDSAVYYCANLYFDVWGAGTTVTVSS
VL: DIVMTQSPSSLSVSAGEKVTMSCKSSQNLLNSGNQKYYLAWYQQKPGQPPKLLIYGASIRESGVPDRFIGSGSGTDFTLTISSVQAEDLAVYFCQSDHSYPYTFGGGTKLEIK
notes: Mouse monoclonal antibody purified from hybridoma supernatant; An IgG2a isotype antibody served as its control; also called R2C9-11 mAb
binding result (R2-IgD4-5): no binding (tested: 20 (unit not printed on the sheet))

From patent publication US20210032353A1 (NATIONAL HEALTH RESEARCH INSTITUTES, published 2021)
